Source: the Human Domainome abundance scans (Beltran et al. 2025)

B1: Mineralocorticoid receptor, residues 600 to 675; numbered along this chain, P08235 (parent)
chain: SKICLVCGDEASGCHYGVVTCGSCKVFFKRAVEGQHNYLCAGRNDCIIDKIRRKNCPACRLQKCLQAGMNLGARKS

Variants of: B1
Experiment: abundance fitness (aPCA) (normalised: wild type 0, dead -1); higher = more abundant; growth selection in yeast, the domain comes from the species named
Conditions: Homo sapiens

Abundance fitness of substitutions, site by site:
F28: N -0.647, Y -0.095, M -0.101, Q -0.582, S -0.361, E -0.749, P -1.21, C -0.364, W 0.037, H -0.445, K -0.856, D -0.782, R -0.898, V -0.322, G -0.647, A -0.263
V19: R -0.019, S 0.038, W -0.058, Y -0.247, T -0.113
C21: E -0.854, V -1.11, K -1.25, F -0.515, P -1.05, T -1.22, I -0.803, G -1.03, Q -0.567, Y -0.731, W -1.22, A -0.977, R -0.962, M -0.969
K29: R -0.021, T -0.012, N -0.109, F -0.167, L -0.072, A 0.016, M -0.04, P -0.076, V -0.095, H -0.002, E -0.105, Q -0.003, G -0.048, W -0.085, C -0.142, D 0.007, S -0.04
T20: W -0.325, M -0.194, P -0.691, C -0.062, R -0.75, A -0.072, I -0.082, V 0.032, H -0.186, Q -0.244, D -0.49, G -0.067, S -0.017, E -0.522, N 0.064, L -0.17, F -0.351, K -0.727
G22: T -0.11, Q -0.16, S -0.058, I -0.259, E -0.017, C -0.178, V -0.093, N -0.236, D 0.008, R -0.103, L -0.094, K -0.063, W -0.088, A -0.013, Y -0.222, H -0.109, P -0.054, M -0.035
K25: Q -0.006, E -0.01, M -0.018, W -0.083, I -0.069, P -0.058, F -0.112, C -0.022, N 0.084, A -0.065, T -0.105, V -0.035, H -0.128, R -0.051, S -0.033, G -0.051, D -0.087
S23: D 0.01, H -0.143, T -0.164, I -0.42, F -0.168, L -0.104, C -0.253, Q -0.013, P 0.026, W -0.193, N 0.051, A -0.125, M -0.085, E 0.003, G 0.009, Y -0.038, K -0.007
C24: W -1.11, K -1.03, R -0.855, A -0.983, E -1.03, H -0.67, N -0.632, D -0.252, P -0.878, V -1.01, S -0.867, Q -1, L -0.581, M -1.04
V26: E -0.022, H -0.03, M -0.058, L -0.049, D 0.024, Y 0.005, I 0.031, N -0.123, R 0.033, W 0.009, A -0.044, C -0.1, Q 0.001, K 0.008
F27: D -0.676, Q -0.847, I -0.608, E -0.961, C -0.801, K -0.924, H -0.427, R -1.15, W -0.223, Y -0.33, L -0.65, G -0.827, P -0.761, V -0.591, M -0.861, A -0.434, T -0.638
